Results published in patent publication US5414076.
“And” between values parts separate entries of the source, which are not always exact repeats. Equal values may be shown once.

Target: human GALV receptor protein (gibbon ape leukemia virus receptor) (human)

In the case of gibbon ape leukemia virus, the Foci/3 × 10^4 Cells (PG4 indicator cells) after exposure to GALV (foci/3 × 10^4 cells) is reported as 382 and 1000.
